The values that follow are results of earlier work, collected in patent US20260217837A1, “FGFR3 BINDING MOLECULES AND METHODS OF USE THEREOF” (Regeneron Pharmaceuticals, Inc., priority 2023, published 2026).

Substitutions are numbered along the chain they refer to. Names and notes keep the numbering of the source. Like-named read-outs stand apart in the source and are kept apart here.

This series has as its system FGFR3.
Where [1] appears, read: Exemplary FGFR3 D3 binding sequences, antibodies of cited PCT publications.
[2] abbreviates: Table T-1, exemplary FGFR3 parental antibodies of cited publications.

B1: KE94: anti-FGFR3 IIIb and IIIc antibody of WO 2022/040560 A1; SEQ ID NO: 82/83 (antibody, V domains shown)
VH: QVQLQQSGAELVRPGASVTLSCKASGSTFTDFEIHWVKQTPVHGLEWIGAIDPETGGTAYNQKFKGKAILTAVKSSSTAYMGLRSLTSEDSAVYYCTRNYDGYSRTMDYWGQGTSVTVSS
VL: NIMMTQSPSSLAVSAGEKVTMSCKSSQSVLYSSNQKNYLAWYQQKPGQSPKLLIYWASTRESGVPDRFTGSGSGTDFSLSISSVQTEDLAVYYCHQYLSSYTFGGGTRLEMK
Turning to B1, the Activity entry under setting [1] was “Antagonistic” and the Activity entry under setting [2] is “Antagonistic”.

B2: 20B4: anti-FGFR3 Igl 3 antibody of WO 2010/002862 A2; SEQ ID NO: 57/58 (antibody, V domains shown)
VH: EIQLQQSGPELVKPGASVKVSCKASGYSLTDYNMYWVKQSHGKSLEWIGYIDPYNGGTSYNQKFKGKATLTVDKSSSTAFMHLNSLTSEDSAVYYCARSLGPDFDYWGQGTTLTVSS
VL: QIVLTQSPAIMSASPGEKVTMTCSASSSVNYMHWYQQKSGTSPKRWIYDTSKLASGVPARFSGSGSGTSYSLTISSMEAEDTATYYCQQWNSNPLTFGAGTKLELK
Take B2: the Activity result under setting [1] is given as “Antagonistic” and the Activity entry under setting [2] was “Antagonistic”.

B3: 27H2: anti-FGFR3 Igl 3 antibody of WO 2010/002862 A2; SEQ ID NO: 53/54 (antibody, V domains shown)
VH: EIQLQQSGPELVKPGASVKVSCKASGYAFTSYNMYWVKQSHGKSLEWIGYIDPYNGGTRYNQKFKGKATMTVDKSSSTAYMHLNSLTSEDSAVYYCAREGGNYEAWFAYWGQGTLVTVSA
VL: QIVLTQSPALMSASPGEKVTMTCSASSSVSYMYWYQQKPRSSPKPWIYLTSNLASGVPARFSGSGSGTSYSLTISSMEAEDAATYYCQQWSSNPLTFGAGTKLELK
Consider B3, for which the Activity result runs as follows: under setting [1], “Antagonistic”; under setting [2], “Antagonistic”.

B4: 2G4: anti-FGFR3 Igl 3 antibody of WO 2010/002862 A2; SEQ ID NO: 55/54 (antibody, V domains shown)
VH: B3 VH with Y60D, M70L
VL: B3 VL
Take B4: the Activity result runs as follows: under setting [1], “Antagonistic”; under setting [2], “Antagonistic”.

B5: 4E7(7D12): anti-FGFR3 Igl 3 antibody of WO 2010/002862 A2; SEQ ID NO: 56/54 (antibody, V domains shown)
VH: B3 VH with M70L
VL: B3 VL
Turning to B5, the Activity entry is on record as “Antagonistic” under setting [1] and “Antagonistic” under setting [2].

B6: KC18: anti-FGFR3 IIIb and IIIc antibody of WO 2022/040560 A1; SEQ ID NO: 72/73 (antibody, V domains shown)
VH: QVQLQQSGAELVRPGASVTLSCKASGDTFTDFEIHWVKQTPVHGLEWIGDIDPETGGTAYNQKFRGRAMLTADRSSSTAYMELRSLTSEDSAVYYCTRTYDGYPYAMDYWGQGTSVTVSS
VL: DIVMSQSPSSLAVSVGEKVTMSCKSSQSLLYSNNQKNYLAWYQQKPGQSPKLLIYWASTRESGVPDRFTGSGSGTDFTLTISSVKAEDLAVYYCQQYYSYRTFGGGTKLEIK
For the molecule B6, the Activity entry runs as follows: under setting [1], “Antagonistic”; under setting [2], “Antagonistic”.

B7: KE63: anti-FGFR3 IIIb and IIIc antibody of WO 2022/040560 A1; SEQ ID NO: 80/81 (antibody, V domains shown)
VH: B1 VH with T30S, A50G, V73D, K74R, G82E, R105Q
VL: B1 VL with S78T, S80T, T86A, R108K
Take B7: the Activity result is “Antagonistic” under setting [1] and “Antagonistic” under setting [2].

B8: Hu15D8: anti-FGFR3 Igl 3 antibody of WO 2010/002862 A2; SEQ ID NO: 59/60 (antibody, V domains shown)
VH: EVQLVQSGAEVKKPGESLKISCKGSGYSFTSYNMYWVRQMPGKGLEWMGYIDPYNGGTSYNQKFKGKATLTVDKSISTAYLQWSSLKASDTAMYYCAREGGNYEAWFAYWGQGTLVTVSS
VL: DIQLTQSPSSLSASVGDRVTITCSASSSVSYMYWFQQKPGKAPKPLIYLTSYLASGVPSRFSGSGSGTDFTLTISSLQPEDFATYYCQQWSSYPLTFGGGTKVEIK
As for B8, the Activity entry is, setting by setting: under setting [1], “Antagonistic”; under setting [2], “Antagonistic”.

B9: VH: SEQ ID NO: 7 of PCT Publication No: WO 2010/048026 A2: unnamed anti-FGFR3 Ig-like domain 2 antibody, VH SEQ ID NO: 7 / VL SEQ ID NO: 8 of WO 2010/048026 A2; SEQ ID NO: 61/62 (antibody, V domains shown)
VH: EVQLVQSGAEVKKPGASVKVSCKASGYMFTSYGISWVRQAPGQGLEWMGWVSTYNGDTNYAQKFQGRVTVTTDTSTSTAYMELRSLRSEDTAVYYCARVLGYYDSIDGYYYGMDVWGQGTTVTVSS
VL: QSVLTQPPSLSVAPGKTATFTCGGNNIGDKSVHWYRQKPGQAPVLVMYLDTERPSGIPERMSGSNFGNTATLTITRVEAEDEADYYCQVWDSGSDHVVFGGGTKLTVLG
For B9, the Activity entry under setting [2] is “Antagonistic”.

B10: 184.6.1.N54S: anti-FGFR3 Ig-like domain 3 antibody of WO 2010/111367 A1; SEQ ID NO: 63/64 (antibody, V domains shown)
VH: EVQLVESGGGLVQPGGSLRLSCAASGFTFTSTGISWVRQAPGKGLEWVGRIYPTSGSTNYADSVKGRFTISADTSKNTAYLQMNSLRAEDTAVYYCARARTYGIYDLYVDYTEYVMDYWGQGTLV
VL: DIQMTQSPSSLSASVGDRVTITCRASQDVDTSLAWYQQKPGKAPKLLIYSASFLYSGVPSRFSGSGSGTDFTLTISSLQPEDFATYYCQQSTGHPQTFGQGTKVEIKR
Take B10: the Activity result was “Antagonistic” under setting [1] and “Antagonistic” under setting [2].

B11: B-701: anti-FGFR3 antibody of WO 2016/134234 A1; SEQ ID NO: 70/71 (antibody, V domains shown)
VH: EVQLVESGGGLVQPGGSLRLSCAASGFTFTSTGISWVRQAPGKGLEWVGRIYPTSGSTNYADSVKGRFTISADTSKNTAYLQMNSLRAEDTAVYYCARTYGIYDLYVDYTEYVMDYWGQGTLV
VL: B10 VL with Q37K
B11: the Activity result under setting [2] is given as “Antagonistic”.

B12: 184.6.1.NS D30E: anti-FGFR3 Ig-like domain 3 antibody of WO 2010/111367 A1; SEQ ID NO: 63/69 (antibody, V domains shown)
VH: B10 VH
VL: B10 VL with D30E
Take B12: the Activity entry under setting [1] was “Antagonistic” and the Activity result under setting [2] is recorded as “Antagonistic”.

B13: 184.6.62: anti-FGFR3 Ig-like domain 3 antibody of WO 2010/111367 A1; SEQ ID NO: 67/68 (antibody, V domains shown)
VH: B10 VH with T30S, S31T, G49A, T54L, S55Y, N59H
VL: B10 VL with D30S, S32A, L33V, S91T, T92Y, G93T, H94T, P95S, Q96L
For the molecule B13, the Activity result under setting [1] is recorded as “Antagonistic” and the Activity result under setting [2] is recorded as “Antagonistic”.

B14: 184.6.58: anti-FGFR3 Ig-like domain 3 antibody of WO 2010/111367 A1 (aka R3Mab); SEQ ID NO: 65/66 (antibody, V domains shown)
VH: B10 VH with G49A, S55N
VL: B10 VL with T31I, S91G, T92A, H94N, Q96Y
Take B14: the Activity entry under setting [1] was “Antagonistic” and the Activity entry under setting [2] is listed as “Antagonistic”.

B15: KE35: anti-FGFR3 IIIb and IIIc antibody of WO 2022/040560 A1; SEQ ID NO: 74/75 (antibody, V domains shown)
VH: EVQLQQSGPELVKPGASVKMSCKASGYTFTDYNMHWVKQSHGKSLEWIGYINPNNGGTRYNQKFKGKATLTVNKSSSTAYMELRSLTSEDSAVYYCARERDYDGAMDYWGQGTSVTVSS
VL: DIQMTQSPSSLSASLGGKVTITCKASQDINKFIAWYQHKPGKGPRLLIHYTSTLQPGIPSRFSGSGSGRDYSFSISNLEPEDIATYYCLQYDNLLWTFGGGTKLEIK
With B15, the Activity entry is on record as “Antagonistic” under setting [1] and “Antagonistic” under setting [2].

B16: KE42: anti-FGFR3 IIIb and IIIc antibody of WO 2022/040560 A1; SEQ ID NO: 76/77 (antibody, V domains shown)
VH: B15 VH with E46Q, R59N, K63N, G66D, S77T, A105S, Y108F
VL: B15 VL with Y87F
For the molecule B16, the Activity result is, setting by setting: under setting [1], “Antagonistic”; under setting [2], “Antagonistic”.

B17: KE58: anti-FGFR3 IIIb and IIIc antibody of WO 2022/040560 A1; SEQ ID NO: 78/79 (antibody, V domains shown)
VH: EVQLQQSGPDLVKPGASVKISCKASGYTVTDYYMNWVKQSHGKSLEWIGDINPNNGVTTYNQKFKDKATLTVDKSSSTAYMELRSLTSEDSAVYYCAREEDFDGFDYWGQGTTLTVSS
VL: DIVMTQSHKFMSTSVGDRVSITCKASQDVSTGVAWYQQKPGQSPQLLIYWASTRHTGVPDRFTGSGSGTDYILTIRSVQAEDLALYYCQQHYSTPLTFGAGTKLELK
As to B17, the Activity entry under setting [1] is given as “Antagonistic” and the Activity result under setting [2] is “Antagonistic”.

B18: MS-Pro-59: anti-FGFR3 Ig-like domain 3 antibody of WO 2002/102972 A2; SEQ ID NO: 28/29 (antibody, V domains shown)
VH: QVQLQQSGPGLVKPSQTLSLTCAISGDSVSSNSAAWNWIRQSPGRGLEWLGRTYYRSKWYNDYAVSVKSRITINDTSKNQFSLQLNSVTPEDTAVYYCARSYYPDFDYWGQGTVTVSS
VL: DIELTQPPSVSVAPGQTARISCSGDALGDKYASWYQQKPGQAPVLVIYDDSDRPSGIPERFSGSNSGNTATLTISGTQAEDEADYYCQSYDGPDLWVFGGGTKLTVLGQ
As to B18, the Activity result under setting [1] was “Antagonistic” and the Activity result under setting [2] is on record as “Antagonistic”.
